Source: article PMC6502868, “Architecture of Saccharomyces cerevisiae SAGA complex” (Cell Discovery, 2019)

T1: Spt7 (S. cerevisiae, UniProt P35177 1-1332)
T1 construct: Spt7, S. cerevisiae, second largest SAGA subunit (SPT module); source: endogenous, in the native SAGA complex purified from fermented S. cerevisiae cells
T1 sequence (looked up): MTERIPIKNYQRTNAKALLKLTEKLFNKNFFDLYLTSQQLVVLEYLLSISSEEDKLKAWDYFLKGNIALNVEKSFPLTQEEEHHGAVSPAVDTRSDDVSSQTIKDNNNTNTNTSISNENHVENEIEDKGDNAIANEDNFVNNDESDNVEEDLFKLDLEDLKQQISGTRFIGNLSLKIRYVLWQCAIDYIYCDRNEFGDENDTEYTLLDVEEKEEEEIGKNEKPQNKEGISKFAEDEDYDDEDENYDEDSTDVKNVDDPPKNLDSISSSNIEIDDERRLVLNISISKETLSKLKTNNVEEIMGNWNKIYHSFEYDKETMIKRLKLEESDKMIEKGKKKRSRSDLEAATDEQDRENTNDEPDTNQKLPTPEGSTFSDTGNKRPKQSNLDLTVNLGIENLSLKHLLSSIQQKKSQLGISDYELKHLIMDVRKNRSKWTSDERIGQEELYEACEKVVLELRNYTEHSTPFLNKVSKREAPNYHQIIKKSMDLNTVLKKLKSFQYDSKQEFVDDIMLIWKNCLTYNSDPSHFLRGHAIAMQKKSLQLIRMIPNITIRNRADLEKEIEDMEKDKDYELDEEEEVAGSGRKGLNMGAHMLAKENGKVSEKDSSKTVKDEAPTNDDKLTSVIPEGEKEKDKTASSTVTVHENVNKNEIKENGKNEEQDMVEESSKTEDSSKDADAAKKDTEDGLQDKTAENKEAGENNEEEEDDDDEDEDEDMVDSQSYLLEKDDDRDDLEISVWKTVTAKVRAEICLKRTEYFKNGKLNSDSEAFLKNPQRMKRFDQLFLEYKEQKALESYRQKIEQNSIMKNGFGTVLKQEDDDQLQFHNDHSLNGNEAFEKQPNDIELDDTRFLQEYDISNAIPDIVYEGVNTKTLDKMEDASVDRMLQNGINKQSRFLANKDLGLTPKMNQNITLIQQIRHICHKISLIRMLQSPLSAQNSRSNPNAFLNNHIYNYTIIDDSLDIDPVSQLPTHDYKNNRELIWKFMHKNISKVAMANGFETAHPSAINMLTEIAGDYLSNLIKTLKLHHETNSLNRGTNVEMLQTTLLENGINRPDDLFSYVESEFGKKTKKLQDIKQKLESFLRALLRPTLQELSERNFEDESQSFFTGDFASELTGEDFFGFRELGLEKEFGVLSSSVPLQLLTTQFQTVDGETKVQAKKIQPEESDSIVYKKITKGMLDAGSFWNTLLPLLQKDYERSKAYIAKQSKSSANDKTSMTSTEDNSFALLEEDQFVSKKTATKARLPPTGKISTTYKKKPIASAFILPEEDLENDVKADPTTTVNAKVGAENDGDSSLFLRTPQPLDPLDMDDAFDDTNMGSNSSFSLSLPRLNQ

B1: Taf9 (natural protein, S. cerevisiae, UniProt Q05027 1-157, looked up)
chain: MNGGGKNVLNKNSVGSVSEVGPDSTQEETPRDVRLLHLLLASQSIHQYEDQVPLQLMDFAHRYTQGVLKDALVYNDYAGSGNSAGSGLGVEDIRLAIAARTQYQFKPTAPKELMLQLAAERNKKALPQVMGTWGVRLPPEKYCLTAKEWDLEDPKSM
notes: Taf9, S. cerevisiae, SAGA subunit (TAF module); source: endogenous, in the native SAGA complex purified from fermented S. cerevisiae cells
B2: Ada1 (natural protein, S. cerevisiae, UniProt Q12060 1-488, looked up)
chain: MSAIQSPAPKPLQPTYPAASPASTNAYMKPGLIGSPAVSNHTEPNNGNNETAEPQGPNQRIDLGAMIEELTSLLGKESWTKYAQIISLFILGKLSRKELSNELELVFSPSAASLEKSNTNHHHSLVRLHNQLLLGIFANSLRENPLGRNGNESSWGFGNGSNNPNNKLKRINKHNSQIEVYKKIVMSLPLNDRNRLKMITKEAGKRGFIFCSVFQARLNNIPKIPIVTNPESLKRVKSNNLKTPLEWSQDIMNGFNVPLASESHSLPDTDSFYLRMVGIAREHGLVGTVDARCVELISLALDQYLKNIIEFTIDTVRYRRKKYSDYYDLNESGLYKSVSEMAADKRDAKIKQLDDDKNEDECADEAKSINNGNNSSKDDIGDISMSSITKAGEAVNEELHENRTISLTNEDIYDSLSIFPNLVEPSGSYYALTNLGLVNDDELVDMKSNIDDLPDFLNEKPTFTPLDERNVGTRHELNWLIKGILTED
notes: Ada1, S. cerevisiae, SAGA subunit (SPT module); source: endogenous, in the native SAGA complex purified from fermented S. cerevisiae cells
B3: Spt20 (natural protein, S. cerevisiae, UniProt P50875 1-604, looked up)
chain: MSANSPTGNDPHVFGIPVNATPSNMGSPGSPVNVPPPMNPAVANVNHPVMRTNSNSNANEGTRTLTREQIQQLQQRQRLLLQQRLLEQQRKQQALQNYEAQFYQMLMTLNKRPKRLYNFVEDADSILKKYEQYLHSFEFHIYENNYKICAPANSRLQQQQKQPELTSDGLILTKNNETLKEFLEYVARGRIPDAIMEVLRDCNIQFYEGNLILQVYDHTNTVDVTPKENKPNLNSSSSPSNNNSTQDNSKIQQPSEPNSGVANTGANTANKKASFKRPRVYRTLLKPNDLTTYYDMMSYADNARFSDSIYQQFESEILTLTKRNLSLSVPLNPYEHRDMLEETAFSEPHWDSEKKSFIHEHRAESTREGTKGVVGHIEERDEFPQHSSNYEQLMLIMNERTTTITNSTFAVSLTKNAMEIASSSSNGVRGASSSTSNSASNTRNNSLANGNQVALAAAAAAAAVGSTMGNDNNQFSRLKFIEQWRINKEKRKQQALSANINPTPFNARISMTAPLTPQQQLLQRQQQALEQQQNGGAMKNANKRSGNNATSNNNNNNNNLDKPKVKRPRKNAKKSESGTPAPKKKRMTKKKQSASSTPSSTTMS
notes: Spt20, S. cerevisiae, SAGA subunit (SPT module); source: endogenous, in the native SAGA complex purified from fermented S. cerevisiae cells
B4: Taf5 (natural protein, S. cerevisiae, UniProt P38129 1-798, looked up)
chain: MSQKQSTNQNQNGTHQPQPVKNQRTNNAAGANSGQQPQQQSQGQSQQQGRSNGPFSASDLNRIVLEYLNKKGYHRTEAMLRAESGRTLTPQNKQSPANTKTGKFPEQSSIPPNPGKTAKPISNPTNLSSKRDAEGGIVSSGRLEGLNAPENYIRAYSMLKNWVDSSLEIYKPELSYIMYPIFIYLFLNLVAKNPVYARRFFDRFSPDFKDFHGSEINRLFSVNSIDHIKENEVASAFQSHKYRITMSKTTLNLLLYFLNENESIGGSLIISVINQHLDPNIVESVTAREKLADGIKVLSDSENGNGKQNLEMNSVPVKLGPFPKDEEFVKEIETELKIKDDQEKQLNQQTAGDNYSGANNRTLLQEYKAMNNEKFKDNTGDDDKDKIKDKIAKDEEKKESELKVDGEKKDSNLSSPARDILPLPPKTALDLKLEIQKVKESRDAIKLDNLQLALPSVCMYTFQNTNKDMSCLDFSDDCRIAAAGFQDSYIKIWSLDGSSLNNPNIALNNNDKDEDPTCKTLVGHSGTVYSTSFSPDNKYLLSGSEDKTVRLWSMDTHTALVSYKGHNHPVWDVSFSPLGHYFATASHDQTARLWSCDHIYPLRIFAGHLNDVDCVSFHPNGCYVFTGSSDKTCRMWDVSTGDSVRLFLGHTAPVISIAVCPDGRWLSTGSEDGIINVWDIGTGKRLKQMRGHGKNAIYSLSYSKEGNVLISGGADHTVRVWDLKKATTEPSAEPDEPFIGYLGDVTASINQDIKEYGRRRTVIPTSDLVASFYTKKTPVFKVKFSRSNLALAGGAFRP
notes: Taf5, S. cerevisiae, SAGA subunit (TAF module); source: endogenous, in the native SAGA complex purified from fermented S. cerevisiae cells
B5: Spt8 (natural protein, S. cerevisiae, UniProt P38915 1-602, looked up)
chain: MDEVDDILINNQVVDDEEDDEEMLSGLENDSKQDLEGNDDGGEDEEDDDDDDEDDDDDEDEREDDDEQEDDDGEDDAARMDKTATPTNEHQHDEQKAAAAGAGGAGDSGDAVTKIGSEDVKLSDVDGGVGSREASSSTHEASANGEVYEYYKHMLNAAQIADSYNIYPTAAIPIQTHVNALAVSRGLKYLFLGGSDGYIRKYDLLNTLEGKLSLTILQKHSLAESIQNAGILQSYWENEIPQKKSEMKLSANKTDYEPKVSPVHSLEVQSECLFILSGLQNGGITMQGVRYMEGSIAHYFKGRNGHTQIVNILRLNGQEDRFLSGSWDKRLLEWDLQTGDIVNEFKKSRSELSSLEMRPLYSSVDVSGNVNSGKENENADDDMDSLFGDEDEDEKQDAGNEPVETGDGSNGEENKEQISEESLNIVYDESVFMTSGLNGSVHIWDRRMTQSPALSLERGAGVPPWCLSACWGVDGDHVYAGRRNACVEQFDLKMPSKPIHNLKLPSISGPVSCVKAMPNNKHLLCASRDNIRLYNVEIAVDASNSTTKSSKVPFLIVPGHHGGIISNLYLDPTSRFIISTSGNRGWQGNSTDTTLIYDIDLE
notes: Spt8, S. cerevisiae, SAGA subunit (SPT module), ~66.2 kDa as printed; source: endogenous, in the native SAGA complex purified from fermented S. cerevisiae cells
B6: Ada3 (natural protein, S. cerevisiae, UniProt P32494 1-702, looked up)
chain: MPRHGRRGKLPKGEKLPKKEGGDNTPSKLLSSMLKTLDLTFERDIGMLNGKSVRSIPNKKTLLELQSQLDSLNEILGTIARGDQETIEALRKIRDSKNEKQANDEKQETSNADGQHESSTATEETNIIDKGVQSPPKPPPSNEISGTIENDVESIKQAADNMAKEEINEDKDLQVHRDQPREKRPFDSETENRATENENTQRPDNKKQKIDVDKMENDPTVKNPKSEFVVSQTLPRAAAALGLFNEEGLESTGEDFLKKKYNVASYPTNDLKDLLPGELPDMDFSHPKPTNQIQFNTFLAFVENFFKDLSDDNLKFLKMKYIIPDSLQFDKTYDPEVNPFIIPKLGPLYTDVWFKDENDKNSAYKKPSPYSNDASTILPKKSANELDDNALESGSISCGPLLSRLLSAVLKDDNDKSELQSSKIIRDGGLPRTGGEDDIQSFRNNNNDTVDMTLSQENGPSVQTPDNDIDEEASFQAKLAENKGSNGGTTSTLPQQIGWITNGINLDYPTFEERLKRELKYVGIYMNLPKDENNPNSDDPDWVTGREDDEISAELRELQGTLKQVTKKNQKRKAQLIPLVERQLAWQEYSSILEDLDKQIDQAYVKRIRVPKKRKKHHTAASNNVNTGTTSQIAQQKAANSSLKSLLDKRQRWINKIGPLFDKPEIMKRIPNESVFKDMDQEEDEDEADVFAQNTNKDVELN
notes: Ada3, S. cerevisiae, SAGA subunit (HAT module); source: endogenous, in the native SAGA complex purified from fermented S. cerevisiae cells
B7: Taf6 (natural protein, S. cerevisiae, UniProt P53040 1-516, looked up)
chain: MSTQQQSYTIWSPQDTVKDVAESLGLENINDDVLKALAMDVEYRILEIIEQAVKFKRHSKRDVLTTDDVSKALRVLNVEPLYGYYDGSEVNKAVSFSKVNTSGGQSVYYLDEEEVDFDRLINEPLPQVPRLPTFTTHWLAVEGVQPAIIQNPNLNDIRVSQPPFIRGAIVTALNDNSLQTPVTSTTASASVTDTGASQHLSNVKPGQNTEVKPLVKHVLSKELQIYFNKVISTLTAKSQADEAAQHMKQAALTSLRTDSGLHQLVPYFIQFIAEQITQNLSDLQLLTTILEMIYSLLSNTSIFLDPYIHSLMPSILTLLLAKKLGGSPKDDSPQEIHEFLERTNALRDFAASLLDYVLKKFPQAYKSLKPRVTRTLLKTFLDINRVFGTYYGCLKGVSVLEGESIRFFLGNLNNWARLVFNESGITLDNIEEHLNDDSNPTRTKFTKEETQILVDTVISALLVLKKDLPDLYEGKGEKVTDEDKEKLLERCGVTIGFHILKRDDAKELISAIFFGE
notes: Taf6, S. cerevisiae, SAGA subunit (TAF module), ~58 kDa as printed; source: endogenous, in the native SAGA complex purified from fermented S. cerevisiae cells
B8: Ada2 (natural protein, S. cerevisiae, UniProt Q02336 1-434, looked up)
chain: MSNKFHCDVCSADCTNRVRVSCAICPEYDLCVPCFSQGSYTGKHRPYHDYRIIETNSYPILCPDWGADEELQLIKGAQTLGLGNWQDIADHIGSRGKEEVKEHYLKYYLESKYYPIPDITQNIHVPQDEFLEQRRHRIESFRERPLEPPRKPMASVPSCHEVQGFMPGRLEFETEFENEAEGPVKDMVFEPDDQPLDIELKFAILDIYNSRLTTRAEKKRLLFENHLMDYRKLQAIDKKRSKEAKELYNRIKPFARVMTAQDFEEFSKDILEELHCRARIQQLQEWRSNGLTTLEAGLKYERDKQARISSFEKFGASTAASLSEGNSRYRSNSAHRSNAEYSQNYSENGGRKKNMTISDIQHAPDYALLSNDEQQLCIQLKILPKPYLVLKEVMFRELLKTGGNLSKSACRELLNIDPIKANRIYDFFQSQNWM
notes: Ada2, S. cerevisiae, SAGA subunit (HAT module); source: endogenous, in the native SAGA complex purified from fermented S. cerevisiae cells

These binders were tested against T2, Tra1 (S. cerevisiae, UniProt P38811 1-3744) (assay: cross-linking; chemical cross-linking of proteins coupled with mass spectrometry (CXMS) on the purified native SAGA complex; 139 unique inter- and 184 unique intra-subunit cross-linking pairs). Conditions: both partners purified.
T2 construct: Tra1, S. cerevisiae, largest SAGA subunit (SPT module), 3744 residues as printed; Endogenous subunit; Purification methods and any tag are in the Supplementary Materials; also called Tra1_(SAGA); lobe A; source: endogenous, in the native SAGA complex purified from fermented S. cerevisiae cells
T2 sequence (P38811 whole entry): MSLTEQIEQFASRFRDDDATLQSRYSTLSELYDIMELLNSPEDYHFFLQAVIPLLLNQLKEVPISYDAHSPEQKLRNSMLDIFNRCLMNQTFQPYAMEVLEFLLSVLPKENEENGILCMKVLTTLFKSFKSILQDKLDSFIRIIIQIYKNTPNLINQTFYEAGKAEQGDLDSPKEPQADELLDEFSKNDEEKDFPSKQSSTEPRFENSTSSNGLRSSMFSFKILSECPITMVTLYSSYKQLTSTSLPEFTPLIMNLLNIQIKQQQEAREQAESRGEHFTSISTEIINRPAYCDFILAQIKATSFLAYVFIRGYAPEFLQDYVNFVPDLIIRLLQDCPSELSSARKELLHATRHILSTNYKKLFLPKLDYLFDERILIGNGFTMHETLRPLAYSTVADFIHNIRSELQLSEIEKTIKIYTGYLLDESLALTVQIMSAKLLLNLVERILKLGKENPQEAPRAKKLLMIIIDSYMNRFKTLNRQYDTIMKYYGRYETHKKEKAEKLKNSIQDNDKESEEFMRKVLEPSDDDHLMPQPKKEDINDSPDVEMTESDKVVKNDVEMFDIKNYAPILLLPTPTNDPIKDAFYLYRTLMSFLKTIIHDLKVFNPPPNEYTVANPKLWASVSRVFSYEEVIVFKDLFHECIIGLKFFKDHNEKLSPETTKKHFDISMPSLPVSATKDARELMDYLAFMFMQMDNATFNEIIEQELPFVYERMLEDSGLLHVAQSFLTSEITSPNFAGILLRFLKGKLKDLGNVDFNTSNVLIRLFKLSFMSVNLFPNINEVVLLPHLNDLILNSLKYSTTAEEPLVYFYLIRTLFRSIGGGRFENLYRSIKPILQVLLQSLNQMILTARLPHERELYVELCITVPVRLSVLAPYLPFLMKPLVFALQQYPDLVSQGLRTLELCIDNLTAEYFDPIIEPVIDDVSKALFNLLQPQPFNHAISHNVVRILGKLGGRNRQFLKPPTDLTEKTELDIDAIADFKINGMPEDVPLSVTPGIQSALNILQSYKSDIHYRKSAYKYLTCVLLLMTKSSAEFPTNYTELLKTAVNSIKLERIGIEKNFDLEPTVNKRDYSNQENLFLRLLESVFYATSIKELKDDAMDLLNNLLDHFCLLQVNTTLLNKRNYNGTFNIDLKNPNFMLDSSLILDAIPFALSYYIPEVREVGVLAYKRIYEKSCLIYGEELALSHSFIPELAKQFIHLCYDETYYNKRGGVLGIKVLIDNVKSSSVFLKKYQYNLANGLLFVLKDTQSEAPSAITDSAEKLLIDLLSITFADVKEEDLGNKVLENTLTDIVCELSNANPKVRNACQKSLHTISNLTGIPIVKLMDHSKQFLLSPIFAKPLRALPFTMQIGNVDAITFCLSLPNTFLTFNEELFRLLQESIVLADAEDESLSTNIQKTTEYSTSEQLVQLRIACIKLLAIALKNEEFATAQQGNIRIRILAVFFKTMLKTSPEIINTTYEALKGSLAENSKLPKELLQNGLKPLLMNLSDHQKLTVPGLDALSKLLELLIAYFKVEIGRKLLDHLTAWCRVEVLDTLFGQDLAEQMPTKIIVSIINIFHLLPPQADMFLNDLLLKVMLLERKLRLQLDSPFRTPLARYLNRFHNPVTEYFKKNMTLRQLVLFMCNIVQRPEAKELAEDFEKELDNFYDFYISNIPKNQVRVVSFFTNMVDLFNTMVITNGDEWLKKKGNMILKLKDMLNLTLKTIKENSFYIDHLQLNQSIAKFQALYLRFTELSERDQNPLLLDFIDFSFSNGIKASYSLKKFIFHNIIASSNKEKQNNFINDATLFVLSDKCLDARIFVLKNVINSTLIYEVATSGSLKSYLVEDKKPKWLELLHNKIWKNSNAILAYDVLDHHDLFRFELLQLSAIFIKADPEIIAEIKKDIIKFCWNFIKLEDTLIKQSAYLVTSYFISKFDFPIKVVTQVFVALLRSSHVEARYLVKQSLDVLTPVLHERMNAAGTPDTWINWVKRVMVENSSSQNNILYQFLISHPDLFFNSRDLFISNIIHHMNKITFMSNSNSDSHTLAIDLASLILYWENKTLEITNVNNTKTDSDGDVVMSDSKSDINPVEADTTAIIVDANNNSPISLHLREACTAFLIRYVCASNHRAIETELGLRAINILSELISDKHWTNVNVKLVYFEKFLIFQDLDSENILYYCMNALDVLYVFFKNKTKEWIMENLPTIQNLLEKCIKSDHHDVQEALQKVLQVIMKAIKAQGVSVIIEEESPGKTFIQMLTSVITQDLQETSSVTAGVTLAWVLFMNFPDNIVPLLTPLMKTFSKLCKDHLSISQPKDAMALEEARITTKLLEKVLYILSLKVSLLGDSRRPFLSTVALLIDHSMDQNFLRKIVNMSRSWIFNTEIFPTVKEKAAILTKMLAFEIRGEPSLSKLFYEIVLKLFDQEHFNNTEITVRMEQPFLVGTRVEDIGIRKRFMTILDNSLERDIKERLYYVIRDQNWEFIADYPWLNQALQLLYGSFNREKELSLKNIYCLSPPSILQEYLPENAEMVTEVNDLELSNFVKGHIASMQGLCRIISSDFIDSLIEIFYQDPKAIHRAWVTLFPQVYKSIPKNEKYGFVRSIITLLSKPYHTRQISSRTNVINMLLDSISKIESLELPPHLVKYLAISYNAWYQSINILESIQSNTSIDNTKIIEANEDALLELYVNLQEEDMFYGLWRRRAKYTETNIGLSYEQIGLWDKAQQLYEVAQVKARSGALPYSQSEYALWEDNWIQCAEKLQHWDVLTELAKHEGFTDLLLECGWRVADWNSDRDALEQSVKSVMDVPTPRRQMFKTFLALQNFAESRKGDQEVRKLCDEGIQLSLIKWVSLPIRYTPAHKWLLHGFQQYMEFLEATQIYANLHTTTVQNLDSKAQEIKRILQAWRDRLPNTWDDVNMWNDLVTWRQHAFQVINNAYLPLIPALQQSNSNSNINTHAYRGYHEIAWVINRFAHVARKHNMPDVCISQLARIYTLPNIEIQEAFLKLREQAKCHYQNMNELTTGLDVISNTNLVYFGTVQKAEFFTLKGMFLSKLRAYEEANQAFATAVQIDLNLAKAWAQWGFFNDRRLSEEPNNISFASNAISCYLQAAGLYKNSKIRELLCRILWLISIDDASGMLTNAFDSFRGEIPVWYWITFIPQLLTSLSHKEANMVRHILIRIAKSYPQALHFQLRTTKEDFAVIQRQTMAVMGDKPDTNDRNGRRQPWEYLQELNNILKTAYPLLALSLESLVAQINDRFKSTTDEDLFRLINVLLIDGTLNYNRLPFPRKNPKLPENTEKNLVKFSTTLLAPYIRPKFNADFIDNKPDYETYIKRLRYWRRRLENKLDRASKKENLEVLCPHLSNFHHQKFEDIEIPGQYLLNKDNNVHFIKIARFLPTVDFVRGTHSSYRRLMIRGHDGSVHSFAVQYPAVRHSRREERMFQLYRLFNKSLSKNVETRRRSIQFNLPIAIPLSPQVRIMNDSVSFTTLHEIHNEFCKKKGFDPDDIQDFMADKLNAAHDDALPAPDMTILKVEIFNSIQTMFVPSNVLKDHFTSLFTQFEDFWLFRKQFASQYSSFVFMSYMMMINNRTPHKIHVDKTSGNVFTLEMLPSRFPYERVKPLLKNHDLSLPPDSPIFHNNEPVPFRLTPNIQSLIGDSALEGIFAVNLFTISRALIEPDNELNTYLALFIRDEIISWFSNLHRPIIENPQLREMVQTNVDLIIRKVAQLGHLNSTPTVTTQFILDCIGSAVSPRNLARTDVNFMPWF

Binding result, binds:
B1
B2
B3

What follows are binders tested against T1, Spt7 in the same assay as above. Conditions: both partners purified.

Binding result, binds:
B4
B5
B6
B7
B8
